pKd: −log10 of the molar value.

The assay deals with recombinant His-tagged cynomolgus PD-1 (Acro Biosystems) (cynomolgus) (UniProt B0LAJ3). The assay is described as follows: SPR Carterra LSA, antibody coupled.
recombinant His-tagged cynomolgus PD-1 (Acro Biosystems) (cynomolgus), sequence (B0LAJ3 entry or part of it limits assumed): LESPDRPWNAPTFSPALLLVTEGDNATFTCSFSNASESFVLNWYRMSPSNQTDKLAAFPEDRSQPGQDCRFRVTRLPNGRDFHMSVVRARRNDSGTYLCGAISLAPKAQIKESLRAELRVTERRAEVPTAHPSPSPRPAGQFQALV

For KEYTRUDA® (pembrolizumab) (antibody), the pKd is 9.24. Then OPDIVO® (nivolumab) (antibody), with 8.19.

For the origin of these results see patent US20250195677A1.
